From patent publication US20050053993A1, “Uses of an endothelial cell receptor” (priority 2002, published 2005)
Ends that are not written are not given here. Peptide text beside a SMILES is read from it. * marks the point of attachment. Biotin = O=C1N[C@H]2[C@H](CS[C@H]2CCCCC(=O)*)N1

Legend:
HMVEC = HMVEC (Homo sapiens, UniProt P11021); assay: VEGF-stimulated HMVEC migration (Boyden chamber); type: cell-based; conditions: for IC50: read-out: IC50 values, inhibition of VEGF stimulation HMVEC migration, 3 ng/ml VEGF, 4 hours at 37° C., 48 well Boyden chamber; for inhibition of migration of activated endothelial cells (in words): compared to rK5
HMVEC, sequence (P11021 19-654): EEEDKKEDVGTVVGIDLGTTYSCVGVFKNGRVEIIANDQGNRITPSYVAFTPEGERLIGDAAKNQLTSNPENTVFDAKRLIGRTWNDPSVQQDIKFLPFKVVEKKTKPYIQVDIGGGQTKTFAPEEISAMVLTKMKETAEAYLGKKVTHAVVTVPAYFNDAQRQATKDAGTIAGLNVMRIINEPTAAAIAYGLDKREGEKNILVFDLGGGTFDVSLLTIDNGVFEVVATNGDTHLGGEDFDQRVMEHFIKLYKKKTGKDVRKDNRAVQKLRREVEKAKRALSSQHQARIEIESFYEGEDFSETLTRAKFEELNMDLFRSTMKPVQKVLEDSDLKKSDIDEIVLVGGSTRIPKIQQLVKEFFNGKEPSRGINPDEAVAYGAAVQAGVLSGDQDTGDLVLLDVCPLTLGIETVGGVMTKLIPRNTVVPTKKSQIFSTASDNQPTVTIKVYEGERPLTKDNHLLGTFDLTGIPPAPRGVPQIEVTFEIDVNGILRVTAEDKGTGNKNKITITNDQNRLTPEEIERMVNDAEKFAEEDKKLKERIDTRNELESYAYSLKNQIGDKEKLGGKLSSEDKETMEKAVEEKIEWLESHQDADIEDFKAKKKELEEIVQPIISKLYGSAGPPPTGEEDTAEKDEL
Description: Endothelial cell migration assays: The effect of rK5 on endothelial cell migration was determined by two different methods. The first assay was performed in a 96 well plate with a cellulose membrane between the upper and lower chambers. HMVEC were starved of growth factors overnight, labeled with fluorescent calcein AM (50-100 nM), plated into a 96 well migration chamber (2.9×10^4/well) (Neuroprobe, Gaitherburg, Md.), and stimulated to migrate with VEGF (5 ng/mL). After 4 h, migrated cells were measured by fluorescence (Frevert C W, Wong V A, Goodman R B, Goodwin R, Martin T R. Rapid fluorescence-based measurement of neutrophil migration in vitro. J Immunol Methods. 1998 Apr. 1;213(1):41-52). In a second assay for cellular migration, a standard Boyden chamber was used (Polyerini, P. J., Bouck, N. P. & Rastinejad, F. Assay and purification of naturally occurring inhibitor of angiogenesis. Meth. Enzymol. 198, 440-450 (1991)). HMVEC cells were starved overnight in DME containing 0.1% bovine serum albumin (BSA) and harvested by scraping and resuspended in DME with 0.1% BSA at 1.5×10^6 cells per ml. Cells were added to the bottom of a 48-well, Boyden chamber. The chamber was assembled and inverted, and cells were allowed to attach for 2 hours at 37° C. to polycarbonate chemotaxis membranes (5 μm pore size) that had been soaked in 0.1% gelatin overnight and dried. The chamber was re-inverted, test substances, including activators were added to the wells of the upper chamber and the apparatus was incubated for 4 hours at 37° C. Growth factors were used, where indicated, at concentrations determined in preliminary experiments to give equivalent migration responses of about 100 cells migrated/high powered field (400×). […] Membranes were recovered, fixed and stained and the number of cells that had migrated to the upper chamber per 10 high power fields counted. Background migration to DME+0.1% BSA was subtracted and the data reported as the number of cells migrated per 10 high power fields (400×) or, when results from multiple experiments were combined, as the percent inhibition of migration compared to the positive growth factor control (Polyerini, P. J., Bouck, N. P. & Rastinejad, F. Assay and purification of naturally occurring inhibitor of angiogenesis. Meth. Enzymol. 198, 440-450 (1991)).

[1] = tested on: EAHY cell surface proteins (~75 kDa and ~95 kDa); assay: S-tag-K5 affinity pull-down of biotinylated EAHY surface proteins; type: binding; conditions: 100 nM S-tag-K5; 1 μM peptides, 10 μM cold rK5
Description: The second method used to identify cell surface rK5 binding proteins was described previously (Zhang, J. C., et al, supra). Surface proteins on 4×10^6 EaHy cells were labeled with NHS-biotin. The cells were washed and lysed (M-Per, Pierce). Cell lysates were mixed with S-tag K5 for 1 hour at room temperature. S-tag K5 bound proteins were precipitated with S-protein agarose (Pierce). Bound proteins were eluted with excess rK5 or with excess PRKLYDY (SEQ ID NO:1) peptide. Eluted proteins were visualized with avidin-HRP and a chemiluminescent substrate. Mass spectroscopic analysis was used to identify the major protein bands.
In particular, surface proteins on 1×10^6 EAHY cells were labeled with NHS-biotin. The cells were washed 3× with PBS and lysed with M-pur. Cell lysates were mixed with (A) 100 nM S-tag-K5, (B) 100 nM S-tag-K5 plus 1 μM PRKLYDY, (C) 100 nM S-tag-K5 plus 10 μM cold rK5 and (D) 100 nM S-tag-K5 and N-terminal K5 peptide at 1 μM for 1 hour at room temperature. The K5 binding proteins were precipitated with S-protein-agarose. Bound proteins were eluted with 50 mM glycine buffer at pH 3.0 and run for PAGE analysis. Surface proteins (biotinylated) that bind K5 were visualized with avidin-HPR and a chemiluminescent substrate.

GRP78 (bovine brain) = target: T1, GRP78 (bovine brain) (Bos taurus, UniProt Q0VCX2); assay: Ultracentrifugation binding of I125rK5(dog) with GRP78; conditions: 1 nM I125rK5(dog) + 1.5 nM GRP78; peptides 100 nM, rK5 1 nM
T1 construct: from tissue; host or cells: bovine brain
T1 sequence (Q0VCX2 20-655): as the sequence (P11021 19-654) above, with I114V, G626S, D629E, T630A, E632D counted along it
Description: Ultra centrifugation with 50,000 MW cut off filters was used with iodinated recombinant dog K5 (I^125rKS(dog)) and GRP78 (bovine brain). The GRP78 and I^125rK5 (dog) were incubated for 1 hour at room temperature. The solution was then transferred to ultracentrifuges and spun at 10,000×g for 2 min. The top chamber contained GRP78 (mw 78,000) and I^125rK5 (dog) that bound. The top and bottom solutions were counted for I125. Column A: 1 nM I^125rK5(dog). Column B: 1 nM I^125rK5 (dog)+1.5 nM GRP78. Column C: 1 nM I^125rK5(dog)+1.5 nM GRP78+100 nM N-terminal K5 peptide, LLPDVETPSEED. Column D: 1 nM I^125rK5(dog)+1.5 nM GRP78±100 nM active site K5 peptide PRKLYDY. Column E: 1 nM I^125rK5(dog)+1.5 nM GRP78+1 nM rK5 (unlabeled). The GRP78 bound to the labeled rK5 causing its retention on the top of the filter.

HMVECs = assay: Competition of 3HK5 binding to endothelial cells; design: species or system human; conditions: 2 nM 3HK5; rK5(K82A) up to 500 nM
Description: Each K5 peptide or a N-terminal antibody to GRP78 was added to HMVECs at various concentrations for 1 hour at room temperature. Cells were washed and the amount of ^3HK5 bound was counted.
Binding of human ^125IrK5 to Endothelial Cells: Tritium-labeled rK5 was added to monolayers of 50,000 HMVEC cells that were either starved or stimulated for 16 hours by 15 ng/ml bFGF and 5 ng/ml VEGF in 96 well plates. The number of counts remaining bound to the cells after extensive washing determined total amount of rK5 bound (Dudani A K, Ganz P R. Endothelial cell surface actin serves as a binding site for plasminogen, tissue plasminogen activator and lipoprotein(a). Br J Haematol. 1996 October; 95(1): 168-78). Binding of ^125IK5 (dog) to Endothelial Cells and rK5 to Recombinant GRP78: The same methods as described above for the expression and purification of human K5 were used to express dog rK5 in E. coli. ^125IK5 (dog) was added to the wells and incubated at room temperature for 1 hour. After 1 hour the cells were washed and lysed with M-Per (Pierce, Racine, Wis.) and the amount of ^125IK5 (dog) bound was counted. Scatchard plot analysis was performed using Prism (GraphPad Software, Inc., San Diego, Calif.) software. Competition binding against 5 nM ^125IK5 (dog) was tested using a monoclonal antibody against GRP78 (N-20, Santa Cruz, Calif.) or a monoclonal antibody against K5 (Green Mountain Antibodies, Burlington, Vt.). The antibodies were added to HMVECs at various concentrations for 1 hour at room temperature. Cells were washed and the amount of bound ^125IK5 (dog) bound was counted. Competition binding was also tested against 2 nM 3HK5. K5 peptides or a c-terminal antibody to GRP78 (A-129, Santa Cruz, Calif.) were added to HMVECs at various concentrations for 1 hour at room temperature. Cells were washed, lysed and the amount of ^3HK5 bound was estimated by scintillation counting.

[2] = target: GRP78 on the surface of human cells (EAHY, HMVEC, HT1080) (human, UniProt P11021 19-654); assay: cell-based or functional assay
GRP78 on the surface of human cells (EAHY, HMVEC, HT1080), sequence (P11021 19-654): as the sequence (P11021 19-654) above

In the case of Ac-MFGNGKGYRGKRATTVTGTP-NH2, the IC50 (HMVEC) is reported as greater than 1000 nM.

For CC(=O)N[C@@H](CC(=O)O)C(=O)N[C@H](C(=O)N1CCC[C@H]1C(=O)N[C@@H](CCC(N)=O)C(N)=O)C(C)C [Ac-DVPQ-NH2] (Ac-DVPQ-NH2), the IC50 (HMVEC) was greater than 1000 nM.

With CC(C)C[C@H](NC(=O)[C@H](CCCCN)NC(=O)[C@H](CCCNC(=N)N)NC(=O)[C@@H]1CCCN1C(=O)CCCC[C@@H]1SC[C@@H]2NC(=O)N[C@@H]21)C(=O)N[C@@H](Cc1ccc(O)cc1)C(=O)N[C@@H](CC(=O)O)C(=O)N[C@@H](Cc1ccc(O)cc1)C(=O)O [Biotin-PRKLYDY] (Biotin-PRKLYDY-OH) the “inhibition of migration of activated endothelial cells (in words)” value (shortened to “inhibition of migration … (in words)”) (HMVEC) was “similarly active”.

PRKLYDY (listed as Homo sapiens) was tested, and the “competition of protein binding to the S-tag K5 column” value [1] was “competed”, the “inhibition of I125rK5(dog) binding to GRP78” value (GRP78 (bovine brain)) was “inhibited” and the “blocking of 3HK5 binding to endothelial cells” value (HMVECs) was “blocked”. The “inhibition of migration … (in words)” value (HMVEC) was “equally potent compared to rK5”.

Ac-QDWAAQEPHRHSIFTPETNPRAGLEKNY-NH2 showed an IC50 (HMVEC) greater than 1000 nM.

With Ac-KLYDY-NH2 [Ac-KLYDY-NH2] the “inhibition of migration … (in words)” value (HMVEC) was “equally potent compared to rK5”.

With CC(=O)N[C@@H](CC(C)C)C(=O)N[C@@H](Cc1ccc(O)cc1)C(=O)N[C@@H](CC(=O)O)C(=O)N[C@@H](Cc1ccc(O)cc1)C(N)=O [Ac-LYDY-NH2] (Ac-LYDY-NH2) the IC50 (HMVEC) was greater than 1000 nM.

With “N-term-S-tag-Kringle 5: S-protein tagged rK5 used as probe for isolation of the cell surface receptor” the “inhibition of migration … (in words)” value (HMVEC) was “similarly active”.

KLYD (listed as Homo sapiens) was tested, and the “inhibition of migration … (in words)” value (HMVEC) was “equally potent compared to rK5”.

For “Ac-VLLPDVETPSEED-NH2 [Ac-VLLPDVETPSEED-NH2]”, the IC50 (HMVEC) was greater than 1000 nM.

For LLPDVETPSEED (listed as Homo sapiens), the “competition of protein binding to the S-tag K5 column” value [1] was “did not inhibit”, the “inhibition of I125rK5(dog) binding to GRP78” value (GRP78 (bovine brain)) was “not” and the “blocking of 3HK5 binding to endothelial cells” value (HMVECs) was “not”.

B1: Ac-VLLPDVETPSEED-NH2 (peptide)
peptide: Ac-VLLPDVETPSEED-NH2
With B1 the “IC50, inhibition of VEGF stimulated HMVEC migration” value (“IC50, inhibition” below) [2] was greater than 1000 nM.

B2: Ac-YTTNPRKLYDY-HN2 (peptide)
peptide: Ac-YTTNPRKLYDY-NH2
B2 was tested, and the “IC50, inhibition” value [2] was 0.2 nM.

B3: Ac-LYDY-NH2 (peptide)
peptide: Ac-LYDY-NH2
In the case of B3, the “IC50, inhibition” value [2] is reported as greater than 1000 nM.

B4: Ac-MFGNGKGYRGKRATTVTGTP-NH2 (peptide)
peptide: Ac-MFGNGKGYRGKRATTVTGTP-NH2
For B4, the “IC50, inhibition” value [2] was greater than 1000 nM.

B5: Ac-KLYDY-NH2 (peptide)
peptide: Ac-KLYDY-NH2
B5 was tested, and the “IC50, inhibition” value [2] was 0.1 nM.

B6: N-terminally biotinylated PRKLYDY peptide (peptide)
peptide: Biotin-PRKLYDY
In the case of B6, the “IC50, inhibition” value [2] is reported as 0.23 nM.

B7: Ac-DVPQ-NH2 (peptide)
peptide: Ac-DVPQ-NH2
With B7 the “IC50, inhibition” value [2] was greater than 1000 nM.

B8: Ac-RNPDGDVGGPW-NH2 (peptide)
peptide: Ac-RNPDGDVGGPW-NH2
For B8, the “IC50, inhibition” value [2] was 0.5 nM.

B9: N-term-S-tag-Kringle 5 (ligand, human, UniProt P00747 481-560, looked up, not shown: small tags and cut ends)
chain: CMFGNGKGYRGKRATTVTGTPCQDWAAQEPHRHSIFTPETNPRAGLEKNYCRNPDGDVGGPWCYTTNPRKLYDYCDVPQC
In the case of B9, the “IC50, inhibition” value [2] is reported as 0.2 nM.

B10: Ac-QDWAAQEPHRHSIFTPETNPRAGLEKNY-NH2 (peptide)
peptide: Ac-QDWAAQEPHRHSIFTPETNPRAGLEKNY-NH2
With B10 the “IC50, inhibition” value [2] was greater than 1000 nM.

B11: Ac-RKLYDY-NH2 (peptide)
peptide: Ac-RKLYDY-NH2
In the case of B11, the “IC50, inhibition” value [2] is reported as 0.12 nM.
